Molecular target: T1, pHer3 in BxPC3 and Calu-3 xenografts (Homo sapiens, UniProt P21860)
T1 construct: on FFPE sections of BxPC3 xenografts; endogenous in cells; host or cells: BxPC3 (pancreas cancer) and Calu-3 (NSCLC) human tumour cells grown as xenografts in mice
Test: Immunohistochemical staining with anti-pHer3 antibody 21D3 on FFPE sections of xenograft tumours after antibody administration
Format: in vivo
Details: FIGS. 7, 8 and 11, versus control IgG1
Method: FIG. 7: Immunohistochemical staining with rabbit monoclonal anti-p Her3 antibody (Cell Signalling 21D3, Lot 4 1:650 dilution, 0.074 ug/ml) on FFPE sections of BxPC3 xenografts, 20×. • (A) and (B) Tumour after administration of control IgG1 500 μg/mouse • (C) and (D) Tumour after administration of antibody U3-1287 500 μg/mouse • Stainings were done in duplicate on three independent xenografts.
FIG. 8: Immunohistochemical staining with rabbit monoclonal anti-pHer3 antibody (Cell Signalling 21D3, Lot 4 1:650 dilution, 0.074 ug/ml) on FFPE sections of BxPC3 xenografts, 20×. • (A) Tumour after administration of antibody U3-1287 25 μg/mouse • (B) Tumour after administration of antibody […] 100 μg/mouse • (C) Tumour after administration of antibody U3-1287 200 μg/mouse • (D) Tumour after administration of antibody U3-1287 500 μg/mouse • (E) Tumour after administration of control IgG1 500 μg/mouse. • Stainings were done in duplicate on three independent xenografts.
FIG. 11: Immunohistochemical staining with rabbit monoclonal anti pHer3 antibody (Cell Signalling 21D3, Lot 4 1:8000 dilution, 0.006 ug/ml) on FFPE sections Calu-3 xenografts, 40×. • (A) and (B) Tumour after administration of control IgG1 25 mg/kg 72 h • (C) and (D) Tumour after administration of antibody U3-1287 25 mg/kg 72 h • Stainings were done in duplicate on five independent xenografts.
Using a microtome, 2-4 μm thin sections were cut, mounted on silanized glass slides and dried at 60° C. for 30 minutes and at 38° C. overnight. Deparaffinisation and rehydration of the specimen was achieved by incubating 2×5 minutes in Xylol, 2×2 minutes in 100% ethanol and 2 minutes each in 96%, 80% and 70% ethanol. After rinsing 20 seconds in distilled water, the slides were incubated for two minutes in PBS. […]
The anti-tumor efficacy of a HER modulator were evaluated in human xenograft tumor studies. In these studies, human tumors were grown as xenografts in immunocompromised mice and therapeutic efficacy was measured by the degree of tumor growth inhibition in response to administrations of the HER modulator. […]

anti-HER3 antibody: anti-HER3 antibody U3-1287 administered to mice bearing BxPC3 or Calu-3 xenografts
reduction: membrane staining intensity (pHer3) | pHer3 positive cells compared to whole cell number in the tumour | tumour cells compared to whole cell number in the tumour

Source: patent US10365283B2, “Activated HER3 as a marker for predicting therapeutic efficacy” (U3 PHARMA GMBH, priority 2006, dated 2019)
